In the DeepSol protein solubility set:

Test: soluble on expression in E. coli; label from the status in PepcDB or PDB records

Sequence | soluble on expression in E. coli
MAHHHHHHMNSTLVHDLQQFRYVTAFTNPLPWPHVRRVSIPGLRHEAPDLPFMANLISALSDCDVSLHKIHEHNDTDILQLVQVLQACLQFSLWSQNILKEKLLEVQATHVAKGVSAQQLENLEKRYHALEGEMAALHKDRGMLSLGTANLRTSLAQMEKTIKRQERQLQQERGRNAQLVAKLEKALCARAVAAPLMSAPRLPPPRESQQRPAGNRHASAPTHRTTKATTVYDSSRLPTDNADAHRDSIASLTSDTSYGDSCLSAEVAARTHSHVPQPCDSLDPPPPPFLDWRTLVRYIIHEEQRASVWASNHASPTAARATADERGIASKEELMPAAQHPSKPAAALPAAATQRVTEAQLDSFFAGLTAGVTTEVVAYSRAVAARVEEMVRAATQQWIQETAEAQQALMAQVQAALGSLGAELAVHKQLKDATPSPALRTVAMPVATSDASDPHAQLAPFSPVLASSSVRNSAAAALPAPCQHAGNALVTLANAPPTNDSKPLSQPPQTSASPLTPSIDSSPPASFLNSFVMSGTALCHSTTGCEVLDGGSKTRTPLPDFSPDILRTPPTSEHGTAAAPLGTGSDGPRSVVSRADDADERDVDVDLLPLDSSSSDSSSGSSQRSDGTADGVAEVSHAYARVLAKPSSPPPMYPNKTPTAAAFVVQPAAPTHPSANRTLSLHFSTRSDVSEGSSYGSSQMLRETRAQLQALLEEEEAAGRAKTHR | not soluble
MQFSTVASIAAVAAVASAAANVTTATVSQESTTLVTITSCEDHVCSETVSPALVSTATVTVDDVITQYTTWCPLTTEAPKNGTSTAAPVTSTEAPKNTTSAAPTHSVTSYTGAAAKALPAAGALLAGAAALLL | soluble
HHPEAGNFKQRVILSHVGFDRPTVLVTEGYTAHYATHPRYQEELSKLFNANLVFVEYRYFGESMPKPCNWDYLTVENSLYDLHHVTTTLKQLYDEKWIATGISKGGQTTMFYRTYFPDDVDISVPYVAPLNQSLEDGRHEPFIANKVSTPENRKRVENFQLEVLKRKSRLLPIFEKYCSDKGYTFRIPIAEVYDFNVLEYSFALWQWGTPVNKIPETNADDHTLFKHFMAICEPDYFSEQSPYPSFNVQAAKELGYYGYDIKPFKKYLTIKSSRDYLHKVMLPPELSNLKFDKTLYNKVVKFLKENDPEMIYIYGGDDPWTASGVTWLKNKKNIKVYVLPGGSHTTRIGSFDTDTQEEIKTQINAWLNKE | not soluble
MSTLGHQYDNSLVSNAFGFLRLPMNFQPYDSDADWVITGVPFDMATSGRAGGRHGPAAIRQVSTNLAWEHNRFPWNFDMRERLNVVDCGDLVYAFGDAREMSEKLQAHAEKLLAAGKRMLSFGGDHFVTLPLLRAHAKHFGKMALVHFDAHTDTYANGCEFDHGTMFYTAPKEGLIDPNHSVQIGIRTEFDKDNGFTVLDACQVNDRSVDDVIAQVKQIVGDMPVYLTFDIDCLDPAFAPGTGTPVIGGLTSDRAIKLVRGLKDLNIVGMDVVEVAPAYDQSEITALAAATLALEMLYIQAAKKGE | soluble
APYRMAYIKKDPVDDARGSTNPFVRIPELSDEDGLIVARGEYVYCLLNLFPYNSGHMMVVPYRQEPNLEDLTAEEISELFAFGQAAIKVVKSVSRPDAINVGFNLGRASGGSVGEHLHMHIVPRWSGDANFMTVIDGTKVLPQLLRKTRSLLAQAWNDMDG | not soluble
MTLGELREEVWNALARYDLALHPTPPHGHHPNFLGARRAAERLLKTPEFQGARRVLAGMDAVLKPLREEALRQGKELLLPHPDRPGEFLLLRDVDPRKLKRVREAYRFGVRVALEEATPDLVLIGAVAVDEEGGWVGKGYGFPQSWLRVEAPFATLAHPVMVYPRLPVPPERRVDLIATPQRLLRLG | soluble
MCVHTRKPDGLHPKPVSHCPVIDTGQSEWRSFTFTTICMGFRPRQAYRQPSPIANETENTMSNSNIQQEAQDIHDQLPESVDASPEDIEERLTTLVDDYRVPLDEAQRSVVSTYLSDSDVDRDDVSSENENQQVDLEEITEAEQWVDITAKVADLWEPRSDSIAQVGLLGDETGTIKFTKWAKSDLEALTEGQVYRLGNVVTDEYQGQYSVKLNRTTTIEALDQDIEVGDDTTDAEGALVDIQSGSGLIKRCPEDDCTRVLQNGRCSEHGEGEGEFDLRIKGVIDNGDTVQEVIFDKEATEQVADITLAQAQEMAMDALDTSVVADEIREVTLGRYYRVQGPELGRYLLVNEFEQLAEMHDPEQLLITARSI | soluble
MAHHHHHHMPQKPLFFIYFFFFQDTPDFGGVDTQTNNNNKKRGFTRDGRGKLAGGDAHSRRDRRMRLRGWGHTAFQTRLNGSRCWGSRGASSASQCVALRSASSSFSMSTSRSPFDAVYVINLNRRPDRWKFILRQLQRAGFREGEYERFTAVDGRAVDIQKAQACGLVSLLGILRLREEESRRIWGMDLNPAAVGCALSHVLLWATIAARRYHRVLVVEDDSLFPHDFQKKYDERMRHVPQDWELVYVSGLDTADQTSQLRVAEGVSRVPQMHRTTNCYVVTHHGARRLLELCLPMTYQLDTMMTMHAVSDPQSGVPHVTSPVCYTLQPPLVVQATRMGSDIQSSNGRDEQEEERARCRAAGWTTD | soluble
MSLNYSNDIFEEDTFNPGNDNLFLKTASVGTGEYFILPRLCAHLAKNAPKFVLKISSLSEYLSLEYLLMSELDFAIGPGFVETGNNIIRELLFEEEAVCIMHKSHPLANQELTQDMYLQAEHVDIQFSYMGNENILYKALQGYHQRNIKVIVPNIISALEVVYHTNFITTVPRTLAVTFKDRYQIELHPFPFPKKTFLVNFYYHKRLSNHKPLQWVLDVIKKYCCVNHEGHHHHHH | not soluble
MLYINSFLDRMGEIIRGEKSVEEADKLLDQKNIFEMFRSDCEEILNLYKSGKAEKEEVQRNFYLLKTYVVSQLSIHFERLKEFAESKGFKIEKKLDPEVINEIALYIDRVEKEV | soluble
MAHHHHHHMEYQGSPQQEEGDAALAKRLHEELNRSEASGHQEPSDQTGGRRQVECPMCSSVSVVVGAADGVQQVCERCKATTHGGFASGEDNENYSMQKLLLCNICQSYNRVPKGTFDAILCGACGNQLKAGGSVTENLSPEDTRVRTQEIRVRCPKCSSINTVEANTDALSVRFECGSCRYANEVFF | soluble
IIGGQKAKMGNFPWQVFTNIHGRGGGALLGDRWILTAAHTLYPKEHEAQSNASLDVFLGHTNVEELMKLGNHPIRRVSVHPDYRQDESYNFEGDIALLELENSVTLGPNLLPICLPDNDTFYDLGLMGYVSGFGVMEEKIAHDLRFVRLPVANPQACENWLRGKNRMDVFSQNMFCAGHPSLKQDACQGDSGGVFAVRDPNTDRWVATGIVSWGIGCSRGYGFYTKVLNYVDWIKKEMEEED | soluble
MGHHHHHHSHMSETTQTSQSLYQALWNSADVLRSKMDANDYKSYLLGMVFYKYLSDKMLFFVAETMEEETESLDEALAVYRKYYEDEETHEDLLAVITDEMSYAIHPDLTFTALVERVNDGSFQLEDLAQGFRDIEQSDELYENLFEDIDLYSKKLGATPQKQNQTVAAVMKELAVLDVAGHAGDMLGDAYEYLIGQFATDSGKKAGEFYTPQPVAKLMTQIAFLGREDKQGFTLYDATMGSGSLLLNAKRYSRQPQTVVYFGQELNTSTYNLARMNMILHGVPIENQFLHNADTLDEDWPTQEPTNFDGVLMNPPYSAKWSASSGFMDDPRFSPFGKLAPKSKADFAFLLHGYYHLKQDNGVMAIVLPHGVLFRGNAEGTIRKALLEEGAIDTVIGLPANIFFNTSIPTTVIILKKNRTNRDVYFIDASKEFDKGKNQNIMTDAHIEKILNAYKSREDIDKFAHLASFEEIVENDYNLNIPRYVDTFEEEEVEPLTEIVAKINQTNATIESQTASLLDMLGQLHGTTPEADEELKAFVKAFKG | not soluble
MKHYDSMDQELITMPISNAFLKLFSEFVDNYARNGTPSFYHWAKEQNHEVINKFFHELLEIIKSNTETFHDVSIIEHLNATVLLSAKTNPYLLDCWISFITKYNAETNSFTPIGASMHIKVGPEGTPSERIIRELKESLVMTQQAFILAQKANATEVDSLKRQLEQTKQENERLVTQNQFLKDQVRAEKTFADLNPQINNARQQLSALTELIQTLSEITNAKPKIETVSSLSIPVVTENKSELLKENSCSVASVSKEVTPAISQEPKKRPVPPPPNDTDGQALSPNIPPKEDVSIKVTIPSMPKPNSTQPAAKNSGFFSGDGFLKELNAKIKERKERPKDEPHTTPVEKKNL | not soluble
MAIVPFKRDPTFYPSPKMAMKAPPEDLAYVACLYTGTGINRADFIAVVDVNPKSETYSKIVHKVELPYINDELHHFGWNACSSALCPNGKPNIERRFLIVPGLRSSRIYIIDTKPNPREPKIIKVIEPEEVKKVSGYSRLHTVHCGPDAIYISALGNEEGEGPGGILMLDHYSFEPLGKWEIDRGDQYLAYDFWWNLPNEVLVSSEWAVPNTIEDGLKLEHLKDRYGNRIHFWDLRKRKRIHSLTLGEENRMALELRPLHDPTKLMGFINMVVSLKDLSSSIWLWFYEDGKWNAEKVIEIPAEPLEGNLPEILKPFKAVPPLVTDIDISLDDKFLYLSLWGIGEVRQYDISNPFKPVLTGKVKLGGIFHRADHPAGHKLTGAPQMLEISRDGRRVYVTNSLYSTWDNQFYPEGLKGWMVKLNANPSGGLEIDKEFFVDFGEARSHQVRLSGGDASSDSYCYP | soluble
MGSDKIHHHHHHMAKTIKLILSDIDGTILDNNHQVDAHLRDTITELKKESIPFVLASARSPHGMFPIAQELNLGANPIACYNGALIVEGNKEHYQTLIEHGLSKADVKKIVALIKKQFPHISINFYSGGDWIVEEIDQWVQIEADITKESPDIRNFDTLLTDDAIPIHKLLLIANAQAIQEFFTYLKRVNFEDASFYLSKDNYLEVTSQSVSKENALLEIAKYYDISLSQTMAIGDNYNDIPMLKLAGLGVAMANAPQAVKNEADIETVSNNDNGVSKVIEDYVLI | not soluble
MGSDKIHHHHHHMSFISKGAKIGENLKIGRNVVIEDGVVIGNNVMIGHNVVIRDGTIVGDNCVIFDGTVLGKLPFKSAISAVTEEKEFPPLKIGNGVTIGANCVIYRGSVLEDFVFVGDLVVIREDVKIGPYTVIGKGVTVENRTTIGRYVKIETNAYITALSTIEDYCFIAPEVTFTNDNFLGRTEERKKFFKGPTLKKGARIGANATILPGVVVGEDALVAAGSVVTRDVPDRKIVMGIPARVVRDVPEEQLLDNQSYYKEESS | not soluble
MNIQITFTDSVRQGTSAKGNPYTFQEGFLHLEDKPHPLQCQFFVESVIPAGSYQVPYRINVNNGRPELAFDFKAMKRA | soluble
MGSDKIHHHHHHMLEQTLLDIALDLSQSLPKKALYQRFMTAVNQVMPCDAVALLEYQGHELVPVAVDGLLPEVLGMGFSPEDHPRLQAIMASKQPIRFNADSELADPYDGYLVIDPKRVLDVHACIGCSLFVEGRLVGVLTLDALNVGAFDAIDDITIATLAALAAATIRNVNLLNQLDRQQYKLDDNDSVFKQKPLKKSDFIGETPCMQALKDDIRIVANSELSVIIGGETGVGKELVARSLHAQSKRRAQALVQVNCAALPDTLAESELFGHSKGAFTGAAKDRMGKFELAHQGTLFLDEVGELSLELQAKLLRVIQEGEIQRIGLDRNIHVDVRIIAASNRNLLQRVKEGLFREDLYHRLCVYPLNVPPLRERQDDIPLLCGNILTNLKHKIGLSSAKTVRLTQAAMQKLQGYPWPGNVRELQHVLMRAALKASAEAKGITVIQLHHLTFACEPMSQGLTELTAFNSNSPDSNPSTSDETFAAANREEKVEPPVISRSFNDRVADFQRQVIRQSLDDNSQVWAKAARQLQLDRGNLHRQAKRLGLIP | not soluble
MNHQARMRWRCRRGMLELDIVLQRFIDNHYEQLDEHQLELFEMLLSLSDHDLWNIIIGNTKEPNNQFQPVLKLLQENLEHHHHHH | soluble
